# Results taken from patent publication US20180148474A1 (KOREA UNIVERSITY RESEARCH AND BUSINESS FOUNDATION SEJONG …, published 2018).
# Biological target: thymic stromal lymphopoietin (TSLP)
# Assay: cell-based or functional assay
# thymic stromal lymphopoietin (TSLP), sequence (Q969D9 29-159): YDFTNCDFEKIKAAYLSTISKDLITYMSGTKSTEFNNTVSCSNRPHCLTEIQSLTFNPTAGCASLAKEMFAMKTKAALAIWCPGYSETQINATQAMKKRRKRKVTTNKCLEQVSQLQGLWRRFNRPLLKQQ
Binder,"Degrees of phosphorylation of STAT5 molecules in cells (%), 0.3 µM peptide mixed with TSLP 100 ng/mL, HMC-1 cells, flow cytometry; control with TSLP alone = 100% [%]","Degrees of phosphorylation of STAT5 molecules in cells (%), 3 µM peptide mixed with TSLP 100 ng/mL, HMC-1 cells, flow cytometry; control with TSLP alone = 100% [%]","Degrees of phosphorylation of STAT5 molecules in cells (%), 30 µM peptide mixed with TSLP 100 ng/mL, HMC-1 cells, flow cytometry; control with TSLP alone = 100% [%]"
H-ARQRASA-OH [Compound 4 (peptide derivative of Formula 4): H2N-Ala-Arg-Gln-Arg-Ala-Ser-Ala-COOH],71,68.3,70.9
H-RQRASA-OH [Compound 2 (peptide derivative of Formula 2): H2N-Arg-Gln-Arg-Ala-Ser-Ala-COOH],84.4,77.9,69.8
Ac-ARQRASA-OH [Compound 5 (peptide derivative of Formula 5): CH3CONH-Ala-Arg-Gln-Arg-Ala-Ser-Ala-COOH],86.1,84.6,77.1
Ac-RQRASA-OH [Compound 3 (peptide derivative of Formula 3): CH3CONH-Arg-Gln-Arg-Ala-Ser-Ala-COOH],73.5,67.8,66.9
